Reference: patent publication US20080293632, “Use of natriuretic peptides for the treatment of stature disorders related to shox gene” (Gudrun RAPPOLD-HOERBRAND, published 2008)

Columns and labels:
SHOX full length = SHOX full length (Homo sapiens, UniProt O15266 O15266:1-292); test: ChIP with SHOX antibody, U2OS cells, quantitative PCR; conditions: tags: tetracycline-inducible in U2OS cells
Protocol: Hereby U2OS cells, which express the SHOX gene for 48 hours, were treated with formaldehyde to allow fixation of the DNA binding proteins to the DNA. The cell chromatin was isolated and the fixed DNA precipitated together with SHOX through addition of a SHOX specific antibody. For controls, […] or water was used instead of the antibody. The precipitated DNA was analyzed by quantitative RT-PCR for an accumulation of SHOX binding sites in the putative regulatory region of the BNP gene.

[1] = molecular target: T1, SHOX-GST (GST-SHOX-STM, SHOX aa 1-194) (Homo sapiens, UniProt O15266 O15266:1-194); test: EMSA; five-nucleotide replacement, entire loss of binding; conditions: tags: N-terminal GST (pGEX, E. coli); chain copies: monomer at low, homodimer at high concentration (stated); label: 32P; 5' overhangs filled in
T1 sequence (O15266 1-194, one chain of several): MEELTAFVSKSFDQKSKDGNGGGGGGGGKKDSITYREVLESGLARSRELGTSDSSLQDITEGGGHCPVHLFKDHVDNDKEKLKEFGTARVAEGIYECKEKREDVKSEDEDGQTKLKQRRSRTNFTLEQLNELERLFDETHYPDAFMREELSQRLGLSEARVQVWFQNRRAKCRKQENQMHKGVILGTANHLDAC
From the text: (§1) To create double stranded DNA for mobility shift assays two complementary oligonucleotides were annealed, generating 5′ overhangs on each side to permit radiolabelling using the Taq polymerase. The following oligonucleotides were used in the shift experiments (only the forward strand of the probes are given, putative binding site in bold, mutagenized nucleotides underlined): BNP-1220 Wt: […] [SEQ ID NO: 10]; BNP-1220a: […] [SEQ ID NO: 11]; BNP-1220b: […] [SEQ ID NO: 12]; BNP-1220c: […] [SEQ ID NO: 13]; BNP-600Wt: […] [SEQ ID NO: 14]; BNP-600a: […] CAT [SEQ ID NO: 15]; BNP-600b: […] [SEQ ID NO: 16].
Gel Shift reactions contained 15 mM Hepes pH 7.5, 150 mM NaCl, 1 mM EDTA, 0.5 mM DTT, 0.05% NP-40, 7.5% glycerol, 0.25 mg/ml bovine serum albumin, 1.5 μg poly(dI-dC) and the appropriate ³²P-labelled probe. After addition of protein extract the samples were incubated for 10 min at room temperature. Separation was performed on a 5% nondenaturing polyacrylamide gel with 0.25×TBE at 12 V/cm at room temperature for 50 min. Gels were then dried and exposed overnight at −80° C. […] In competition experiments, varying amounts of unlabelled competitor DNA were added to the samples preceding addition of protein extracts. In supershift experiments, 3 μg of anti-human SHOX-3-specific antibody were applied to the samples and preincubated for 15 min on ice prior separation for 2 h at 12 V/cm and 8° C.

[2] = molecular target: T1, SHOX-GST (GST-SHOX-STM, SHOX aa 1-194); test: EMSA; conditions: tags: N-terminal GST (pGEX, E. coli); chain copies: monomer at low, homodimer at high concentration (stated); label: 32P; 5' overhangs filled in
Protocol: (§2) FIG. 2A: 10 fmol of ³²P-radiolabelled double-stranded oligonucleotide containing the putative proximal binding site of SHOX was incubated with 0, 0.05, 0.5 and 3 μl purified SHOX-GST (250 nM). Monomeric binding of SHOX-GST could be observed with volumes of 0.05 and 0.5 μl, an increase in SHOX-GST concentration led to the formation of homeodimers.
as §1
(§3) Gel Shift reactions contained 15 mM Hepes pH 7.5, 150 mM NaCl, 1 mM EDTA, 0.5 mM DTT, 0.05% NP-40, 7.5% glycerol, 0.25 mg/ml bovine serum albumin, 1.5 μg poly(dI-dC) and the appropriate ³²P-labelled probe. After addition of protein extract the samples were incubated for 10 min at room temperature. Separation was performed on a 5% nondenaturing polyacrylamide gel with 0.25×TBE at 12 V/cm at room temperature for 50 min. […]

[3] = molecular target: T1, SHOX-GST (GST-SHOX-STM, SHOX aa 1-194); test: EMSA; five-nucleotide replacement, entire loss of binding; conditions: tags: N-terminal GST (pGEX, E. coli); chain copies: monomer at low, homodimer at high concentration (stated); label: 32P; 5' overhangs filled in; remark: listed apart in the source
Protocol: To test the sequence specificity of the SHOX DNA binding, SHOX-GST was incubated with oligonucleotides containing artificially introduced mutations in the putative SHOX binding site. Nucleotides differing from the wild-type sequence (Wt) are highlighted in green (BNP-1220a, BNP-1220b, BNP-1220c).
as §1
as §3, with “min. Gels were then dried and exposed overnight at −80° C.” for “min.”

[4] = molecular target: T1, SHOX-GST (GST-SHOX-STM, SHOX aa 1-194); test: EMSA; conditions: tags: N-terminal GST (pGEX, E. coli); chain copies: monomer at low, homodimer at high concentration (stated); label: 32P; 5' overhangs filled in; remark: listed apart in the source
Protocol: as §2, with “3A:” for “2A:”, “double stranded” for “double-stranded”, “distal” for “proximal”
as §1, §3

SHOX full length, sequence (O15266 whole entry, one chain of several): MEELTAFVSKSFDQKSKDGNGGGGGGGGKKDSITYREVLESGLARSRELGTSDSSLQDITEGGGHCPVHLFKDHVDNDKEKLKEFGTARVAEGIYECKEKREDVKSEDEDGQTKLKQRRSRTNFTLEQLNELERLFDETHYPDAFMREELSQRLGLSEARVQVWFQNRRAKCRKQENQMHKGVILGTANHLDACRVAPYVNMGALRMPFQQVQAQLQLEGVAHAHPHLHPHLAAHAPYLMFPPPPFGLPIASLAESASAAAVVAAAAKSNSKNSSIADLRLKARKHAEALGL

B1: BNP-1220 chromatin region (dsDNA)
DNA 1: TAATGATAATTA
DNA 2: TAATTATCATTA
- binding signal (SHOX full length): 301 fold enrichment

B2: BNP-600b (dsDNA)
DNA 1: GGGTTCCTGGTCATACCCAGGCTTTTGGGGAAGGGCCACTGGGGAATCAGCAT
DNA 2: ATGCTGATTCCCCAGTGGCCCTTCCCCAAAAGCCTGGGTATGACCAGGAACCC
- binding result [1]: no binding

B3: BNP-600 Wt (dsDNA)
DNA 1: TTCCTGGTCATACCCAGGCTTTTAATGAATTGCCACTGGGGAATCAGCAT
DNA 2: ATGCTGATTCCCCAGTGGCAATTCATTAAAAGCCTGGGTATGACCAGGAA
- binding result [2]: binds

B4: BNP-600 chromatin region (dsDNA)
DNA 1: TAATGAATTG
DNA 2: CAATTCATTA
- binding signal (SHOX full length): 428 fold enrichment

B5: BNP-1220c (dsDNA)
DNA 1: GGGTCACCAGGCCACCTGCTCCCGATACCTAGATCATGGGTGGTCAGATG
DNA 2: CATCTGACCACCCATGATCTAGGTATCGGGAGCAGGTGGCCTGGTGACCC
- binding result [3]: no binding

B6: BNP-1220 Wt (dsDNA)
DNA 1: TAATCACCAGGCCACCTGCTAATGATAATTAGATCATGGGTGGTCAGATG
DNA 2: CATCTGACCACCCATGATCTAATTATCATTAGCAGGTGGCCTGGTGATTA
- binding result [4]: binds
